As usually defined, the Kd is the concentration at which binding is half-saturated. A lower Kd goes with tighter binding. In general, koff refers to the rate constant with which the complex falls apart. Read a high koff as a short-lived complex. What is called kon is the rate constant with which the complex forms. Low readings indicate slow association, high ones fast association.

Here are results for eleven molecules from patent US20240358849A1 (SUZHOU FUSE BIOSCIENCES, published 2024).

Positions count from the first letter of the chain named. Numbers in names are those of the source. Where only a bound is given, the exact number is not on record here.

Assay [1] concerns the target T1, human Fibroblast Activation Protein (FAP), soluble antigen (human, UniProt Q12884 26-760, biotinylated when immobilized on streptavidin sensors).
T1 construct: also called hFAP; biotinylated FAP
Briefly: BLI, small-scale crude lysate.

Assay [2] concerns the target T1, human Fibroblast Activation Protein …. Briefly: BLI; Table 11, antibody variants (Fab/scFv). On the technique in general: In BLI a coated tip is dipped into the sample, and binding shifts an interference pattern.
For assay [3], the target named is T2, human interleukin-2 (IL-2), wild type (human, UniProt P60568 21-153, biotinylated when immobilized).
T2 construct: also called biotinylated IL-2; IL2 WT
Briefly: BLI; Table 11 (N.B. = no detectable binding).

Assay [4] addresses T1, human Fibroblast Activation Protein …. Nature of the assay: BLI (Gator), biotinylated FAP on streptavidin sensor.
Assay [5] concerns the target T3, human FAP expressed on cells (HEK 293T-hFAP-E5; ExpiCHO-hFAP) (human, UniProt Q12884 1-760).
T3 construct: hFAP expression vector Sino Biologics HG10464-UT; also called hFAP expressing cells
Briefly: flow cytometry, 1 µg/mL antibody. (In general: Flow cytometry measures light scatter and fluorescence of single cells or particles in a stream.)

T2 sequence (P60568 21-153): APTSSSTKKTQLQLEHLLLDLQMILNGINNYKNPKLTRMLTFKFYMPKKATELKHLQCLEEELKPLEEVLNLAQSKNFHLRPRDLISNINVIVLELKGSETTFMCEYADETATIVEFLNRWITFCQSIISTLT

B1: D029 LV4 (Rev1:Q27G:P94Y) (bispecific antibody, V domains shown)
VH: EVQLVESGGGLVQPGGSLRLSCAASGFTFTWSFMSWVRQAPGKGLEWVSWIGPSGSYTDYADSVKGRFTISRDNSKNTLYLQMNSLRAEDTAVYYCARSQYGRYYSPDYYFDYWGQGTLVTVSS
VL: DIQMTQSPSSLSASVGDRVTITCRASGALGFYLNWYQQKPGKAPKLLIYAASSLSSGVPSRFSGSGSGTDFTLTISSLQPEDFATYYCQQGRTYPLTFGQGTKVEIKR
Regarding B1, the Kd in assay [1] was approximately 100 nM.

B2: anti-FAP antibody 872-59 (antibody, V domains shown)
VH: EVQLVESGGGLVQPGGSLRLSCAASGFTFTSYAMSWVRQAPGKGLEWVSSIYSWYGTTSYADSVKGRFTISRDNSKNTLYLQMNSLRAEDTAVYYCARTISYSQYAYGYSFDYWGQGTLVTVSS
VL: B1 VL with G27Q, A28S, L29I, G30S, F31S, S55Q, G91A, R92F, Y94S, L96R
notes: also called IgG 59; FAP59
In assay [2], B2 returned a Kd of 16 nM. For the same molecule, in assay [3], the binding result is “no binding”. For the same molecule, in assay [4], binding was put at a Kd of 15.5 nM, the koff was determined as 0.0056 s⁻¹ and the kon amounted to 360000 M⁻¹ s⁻¹.

B3: antibody D003 (antibody, V domains shown)
VH: B2 VH with T30Y, S31T, A33I, Y52G, S53P, W54S, T57D, S59I
VL: B1 VL with G27Q, A28S, L29I, G30S, F31S, S55Q, G91T, T93S, P95L, L96P
With B3, in assay [5], the binding result is “binds”.

B4: anti-FAP antibody 872-70 (antibody, V domains shown)
VH: EVQLVESGGGLVQPGGSLRLSCAASGFTFSRYSMSWVRQAPGKGLEWVSYITSTDGTTDYADSVKGRFTISRDNSKNTLYLQMNSLRAEDTAVYYCARSQYGRYYSPDYYFDYWGQGTLVTVSS
VL: B1 VL with G27Q, A28S, L29I, G30S, F31S, S55Q, G91S, Y94S, L96Y
notes: also called IgG 70; FAP70
For B4, in assay [2], the Kd is less than 1 nM. In addition, the binding result in assay [3] was “no binding”. In assay [4], this molecule returned a Kd of less than 1 nM and a kon of 110000 M⁻¹ s⁻¹.

B5: D029-HV1LV4 (bispecific antibody, V domains shown)
VH: B1 VH with S56L
VL: B1 VL
notes: also called Rev1:Q27G:P94Y/S55L; D029HVILV4 (so in the source)
Molecule B5 had a Kd in assay [1] of approximately 100 nM.

B6: D029 VH-S55L:T30R (bispecific antibody, V domains shown)
VH: B1 VH with T30R, S56L
VL: B1 VL with G27Q, A28D, L29G, F31N, A50G, S53T, S55Y, Y94P
Consider B6, for which the Kd in assay [1] is approximately 100 nM.

B7: D029-HV1LV2 (bispecific antibody, V domains shown)
VH: B1 VH with S56L
VL: B1 VL with L96F
notes: also called Rev1:Q27G:P94Y:L96F/S55L; D029HVILV2 (so in the source)
In the case of B7, in assay [1], the Kd is approximately 100 nM.

B8: D029VH T30R:S55L/LV2 (bispecific antibody, V domains shown)
VH: B1 VH with T30R, S56L
VL: B1 VL with L96F
notes: also called Rev1:Q27G:P94Y:L96F/S55L:T30R
Consider B8, for which, in assay [1], the Kd is approximately 100 nM.

B9: D029 T30R:S55L/LV1 (bispecific antibody, V domains shown)
VH: B1 VH with T30R, S56L
VL: B1 VL with G27Q, Y94P
notes: also called Rev1/S55L:T30R
In assay [1], B9 displayed a Kd of approximately 100 nM.

B10: D029VH T30R:S55L/LV4 (bispecific antibody, V domains shown)
VH: B1 VH with T30R, S56L
VL: B1 VL
notes: also called Rev1:Q27G:P94Y/S55L:T30R
Turning to B10, in assay [1], the Kd was approximately 100 nM.

B11: two-in-one antibody D049 (bispecific antibody, V domains shown)
VH: EVQLVESGGGLVQPGGSLRLSCAASGFTFFSYWMSWVRQAPGKGLEWVSTISPYDSSTAYADSVKGRFTISRDNSKNTLYLQMNSLRAEDTAVYYCARLLYGTWFDYWGQGTLVTVSS
VL: DIQMTQSPSSLSASVGDRVTITCRASQIVRTYLNWYQQKPGKAPKLLIYAASSLQSGVPSRFSGSGSGTDFTLTISSLQPEDFATYYCQQGAQLQPTFGQGTKVEIKR
For B11, the binding result in assay [5] is “binds”.
